From US20250019449A1

What was measured:
[1] = target: human CCR8 (human) (UniProt P51685); test: flow cytometry on mammalian cells expressing human CCR8
[2] = target: human CCR8 (human) (UniProt P51685); test: cell-based or functional assay

human CCR8 (human), sequence (P51685 whole entry): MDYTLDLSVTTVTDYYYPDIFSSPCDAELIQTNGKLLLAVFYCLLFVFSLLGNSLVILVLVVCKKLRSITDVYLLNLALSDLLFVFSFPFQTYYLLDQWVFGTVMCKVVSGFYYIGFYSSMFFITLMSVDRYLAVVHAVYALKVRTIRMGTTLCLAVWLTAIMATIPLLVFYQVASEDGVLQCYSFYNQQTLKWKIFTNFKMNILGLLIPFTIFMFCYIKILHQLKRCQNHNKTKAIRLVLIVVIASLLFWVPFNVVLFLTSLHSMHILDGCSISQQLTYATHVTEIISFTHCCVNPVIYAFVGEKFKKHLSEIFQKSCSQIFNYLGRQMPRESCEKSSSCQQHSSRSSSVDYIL

ADI-26140: Human IgG1 isotype control (antibody)
MFI Fold over Background (fold over background) [1]: 2

CTL-33364 = Biolegend human CCR8 control IgG clone L263G8 (antibody)
IC50 antagonism of EC80 Human CCL1 Gα15/16 Biosensor [2]: 1.62 nM
IC50 antagonism of EC80 Human CCL1 Gαz Biosensor [2]: 0.798 nM
MFI Fold over Background (fold over background) [1]: 268

MC148R = virokine from Molluscum contagiosum virus subtype 2 (MOCV) (ligand)
IC50 antagonism of EC80 Human CCL1 Gα15/16 Biosensor [2]: 33.5 nM
IC50 antagonism of EC80 Human CCL1 Gαz Biosensor [2]: 13.8 nM
